The values that follow come from patent US11253617B2, “One step 64Cu-BaBaSar-RGD2 production method” (UNIVERSITY OF SOUTHERN CALIFORNIA, priority 2017, dated 2022).

Where “and” joins values, the source holds several entries; their conditions need not be identical. Identical values can stand only once. Like-named read-outs stand apart in the source and are kept apart here.

The conditions of data set [1]: reference 24; cited from earlier work.
A short description of data set [2]: Estimated human absorbed doses (Olinda/EXM) from PET biodistribution in macaque monkey. In kind it is in vivo. On the procedure:
(§1) The PET images at 1, 5, 10, 20, 40, 60, 120, and 180 min after injection are disclosed in FIG. 4. […] The bladder content was visualized at 10 min after injection and more and more activity was accumulated in urine bladder content. […] Gallbladder uptake was not observed during the whole scan. […] The urinary bladder had the highest uptake, with 51.37%±8.73% of injected activity at 1 h post injection. The maximum uptake for the liver, and kidneys were 37.40±6.63% ID (9 min) and 26.79±4.35% ID (0.5 min) respectively.
The mean organ doses for the human phantom were calculated with Olinda/EXM using ^64Cu-BaBaSar-RGD2 biodistribution in monkey (Table 2). The kidneys had the highest radiation-absorbed doses (108.43 μGy/MBq), followed by the bladder wall (87.07 μGy/MBq). The mean effective dose of ^64Cu-BaBaSar-RGD2 was 15.30±2.21 μSv/MBq. […] The estimated doses for […] were higher by 18% because body and organ sizes of women are smaller than those men (data not shown).
Integrin αvβ3-targeted radiopharmaceutical ^64Cu-BaBaSar-RGD2 has been successfully synthesized with the one-step kit method. The straightforward method greatly simplifies the production process and benefits the clinical application of ^64Cu-BaBaSar-RGD2. Human radiation dosimetry of ^64Cu-BaBaSar-RGD2 was estimated after intravenous administration in macaque monkey, by PET imaging and OLINDA/EXM calculations. The critical organs were kidneys and urinary bladder wall. The mean effective dose, determined with the male adult model, was […]. […] Therefore, ^64Cu-BaBaSar-RGD2 can safely be used in human scan for further evaluation of its performance as an integrin-targeting probe.

A short description of data set [3]: PET/CT biodistribution in macaque monkey. The conditions noted are these: for tissue uptake dose: monkey, iv, total radioactivity. Type of data set: in vivo. The procedure: FIG. 4: Decay-corrected anterior maximum-intensity projections of PET/CT at 1, 5, 10, 20, 40, 60, 120, and 180 min after injection of ^64Cu-BaBaSar-RGD2 in macaque monkey.
as §1

Data set [4] is described as follows: Vital signs after injection in macaque monkey. In kind it is in vivo. As to conditions: 13.1-19.7 MBq/kg, during and 24-h after PET scan. On the procedure: as §1
Data set [5] can be described thus: Blood clearance from venous blood samples during PET scan. Type of data set: in vivo, monkey. On the procedure:
Venous blood samples were withdrawn from monkey during the PET scan. […] At 22 h after injection, the activity in the blood decreased to 0.79±0.52% ID. Based on the percentage of injected dose in blood sample, the half life of ^64Cu-BaBaSar-RGD2 in blood pool was calculated as 12.1±4.0 min (n=3).

For data set [6] the following is noted: in vitro and in vivo, reference 23; cited from earlier work.
The subject of the next data set is U87MG glioblastoma tumor. As to conditions: cited from earlier work.
The mark [7] stands for this setting: human phantom, Olinda/EXM, monkey biodistribution, Mean ± SD.
Setting [8] is: male human phantom, Olinda/EXM, monkey biodistribution, Mean ± SD.

In the case of `OC[C@H]1OC(O)[C@H]([18F])[C@@H](O)[C@@H]1O` (stereo partly drawn) [^18F-FDG, 2-deoxy-2-[^18F]fluoro-D-glucose], the “Estimated dose in a whole-body PET scan” value in data set [1] is 6.23 mSv.

For `N=C(N)NCCC[C@@H]1NC(=O)[C@H](CCCCNC(=O)c2ccc(CNC34CNCCNCC(NCc5ccc(C(=O)NCCCC[C@@H]6NC(=O)[C@@H](Cc7ccc(O)cc7)NC(=O)[C@H](CC(=O)O)NC(=O)CNC(=O)[C@H](CCCNC(=N)N)NC6=O)cc5)(CNCCNC3)CNCCNC4)cc2)NC(=O)[C@@H](Cc2ccc(O)cc2)NC(=O)[C@H](CC(=O)O)NC(=O)CNC1=O` [^64Cu-BaBaSar-RGD2, metal not drawn], the “Effective dose for the non-voiding model” value in data set [2] (925-MBq administrated into human subject) is reported as 14.2 mSv. For the same compound, the “Mean effective dose, male adult model” value in data set [2] (OLINDA/EXM, intravenous administration in macaque monkey) is reported as 15.30±2.21 Sv/MBq. In addition, the “Estimated doses for the female human, higher than male by” value in data set [2] (female versus male human phantom) is reported as 18%. In addition, in data set [2] (setting [7]), the “Estimated human absorbed dose, Ovaries” value was 2.88 ± 0.44 μGy/MBq and the “Estimated human absorbed dose, Uterus” value was 4.16 ± 0.63 μGy/MBq. In data set [2] (setting [8]), the “Effective Dose (mean)” value is on record as 15.30±2.21 μSv/MBq; the “Estimated human absorbed dose, Adrenals” value is recorded as 3.34 ± 0.52 μGy/MBq; the “Estimated human absorbed dose, Brain” value is listed as 1.27 ± 0.22 μGy/MBq; the “Estimated human absorbed dose, Breasts” value is reported as 1.34 ± 0.23 μGy/MBq. In data set [2] (setting [8]), the “Estimated human absorbed dose, Gall bladder Wall” value is reported as 3.07 ± 0.49 μGy/MBq; the “Estimated human absorbed dose, Heart Wall” value is on record as 4.39 ± 0.62 μGy/MBq; the “Estimated human absorbed dose, Kidneys” value is 108.43 μGy/MBq and 108.43 ± 16.41 μGy/MBq; the “Estimated human absorbed dose, LLI Wall” value is 2.86 ± 0.44 μGy/MBq. For the same compound, in data set [2] (setting [8]), the “Estimated human absorbed dose, Liver” value was 7.54 ± 1.15 μGy/MBq; the “Estimated human absorbed dose, Lungs” value was 1.67 ± 0.28 μGy/MBq; the “Estimated human absorbed dose, Muscle” value is reported as 1.88 ± 0.31 μGy/MBq; the “Estimated human absorbed dose, Osteogenic Cells” value is 7.01 ± 0.91 μGy/MBq. Also, in data set [2] (setting [8]), the “Estimated human absorbed dose, Pancreas” value is 2.86 ± 0.45 μGy/MBq; the “Estimated human absorbed dose, Red Marrow” value is 9.29 ± 1.02 μGy/MBq; the “Estimated human absorbed dose, Skin” value was 1.38 ± 0.24 μGy/MBq; the “Estimated human absorbed dose, Small Intestine” value was 4.53 ± 0.68 μGy/MBq. For the same compound, in data set [2] (setting [8]), the “Estimated human absorbed dose, Spleen” value is listed as 6.78 ± 0.88 μGy/MBq; the “Estimated human absorbed dose, Stomach Wall” value is reported as 2.11 ± 0.34 μGy/MBq; the “Estimated human absorbed dose, Testes” value was 2.03 ± 0.33 μGy/MBq; the “Estimated human absorbed dose, Thymus” value is 1.56 ± 0.26 μGy/MBq. Moreover, in data set [2] (setting [8]), the “Estimated human absorbed dose, Thyroid” value is listed as 1.39 ± 0.24 μGy/MBq; the “Estimated human absorbed dose, Total Body” value was 2.76 ± 0.42 μGy/MBq; the “Estimated human absorbed dose, ULI Wall” value is reported as 2.47 ± 0.39 μGy/MBq; the “Estimated human absorbed dose, Urinary Bladder Wall” value is 87.07 μGy/MBq and 87.07 ± 12.38 μGy/MBq. Moreover, the Urinary bladder uptake in data set [3] (1 h post injection, bladder not voided (anesthesia)) is 51.37%±8.73%. Also, the “Activity in gallbladder, small intestine, upper and lower large intestine” value in data set [3] (3 h post injection) is 8.62%±1.41%. The Gallbladder uptake result in data set [3] (during the whole scan) was “not observed”. Besides, in data set [3] (kidneys, at 0.5 min, read-out: Maximum uptake for the kidneys), the tissue uptake dose stood at 26.8 ± 4.35 %ID. Moreover, in data set [3] (liver, at 9 min, read-out: Maximum uptake for the liver), the tissue uptake dose was determined as 37.4 ± 6.63 %ID. Besides, the “Effects on vital signs (blood pressure, pulse, electrocardiogram)” value in data set [4] was “no observable effects on vital signs”. Moreover, the “Activity remaining in blood” value in data set [5] (3 h after injection, decay corrected) was 2.88±0.88 % ID. For the same compound, in data set [5] (3 h after injection, range), the “Activity remaining in blood (range)” value is 2.07-3.82 % ID. The “Activity in the blood” value in data set [5] (22 h after injection) amounted to 0.79±0.52 % ID. Besides, the “Clearance from the blood” value in data set [5] (decay corrected activity per unit of blood sample) was “cleared rapidly from the blood”. In addition, in data set [6], the Stability entry was “great stability both in vitro and in vivo”. The Tumor uptake result with U87MG glioblastoma tumor (U87MG glioblastoma tumor bearing mice, reference 23) is “high tumor uptake”. Also, the Normal organ uptake entry in the data set with U87MG glioblastoma tumor (mouse, in vivo) is “low normal organ uptake”.
